Literature values, collected in PMC7593401.

Target: C3b (Homo sapiens) (UniProt P01024)
Test: SPR

Chain of C3b (Homo sapiens) (P01024 23-667, chain 1 of 2): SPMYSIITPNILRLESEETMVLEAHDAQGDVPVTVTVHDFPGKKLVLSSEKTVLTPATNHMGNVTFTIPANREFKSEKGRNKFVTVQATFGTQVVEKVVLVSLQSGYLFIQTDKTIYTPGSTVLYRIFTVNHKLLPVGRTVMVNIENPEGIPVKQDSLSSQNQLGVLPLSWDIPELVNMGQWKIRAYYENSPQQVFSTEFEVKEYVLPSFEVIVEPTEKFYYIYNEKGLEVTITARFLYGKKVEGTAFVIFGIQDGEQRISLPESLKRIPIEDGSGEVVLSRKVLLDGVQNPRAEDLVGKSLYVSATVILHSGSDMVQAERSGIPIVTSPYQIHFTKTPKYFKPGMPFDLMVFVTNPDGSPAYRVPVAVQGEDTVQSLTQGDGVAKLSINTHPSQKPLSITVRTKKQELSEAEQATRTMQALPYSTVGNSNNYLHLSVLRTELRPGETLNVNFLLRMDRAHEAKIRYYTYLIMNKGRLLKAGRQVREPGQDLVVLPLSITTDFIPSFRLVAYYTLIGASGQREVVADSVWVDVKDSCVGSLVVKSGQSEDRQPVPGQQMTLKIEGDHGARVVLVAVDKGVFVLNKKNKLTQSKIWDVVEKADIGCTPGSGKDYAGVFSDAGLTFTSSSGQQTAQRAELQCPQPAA
Chain of C3b (Homo sapiens) (P01024 749-1663, chain 2 of 2): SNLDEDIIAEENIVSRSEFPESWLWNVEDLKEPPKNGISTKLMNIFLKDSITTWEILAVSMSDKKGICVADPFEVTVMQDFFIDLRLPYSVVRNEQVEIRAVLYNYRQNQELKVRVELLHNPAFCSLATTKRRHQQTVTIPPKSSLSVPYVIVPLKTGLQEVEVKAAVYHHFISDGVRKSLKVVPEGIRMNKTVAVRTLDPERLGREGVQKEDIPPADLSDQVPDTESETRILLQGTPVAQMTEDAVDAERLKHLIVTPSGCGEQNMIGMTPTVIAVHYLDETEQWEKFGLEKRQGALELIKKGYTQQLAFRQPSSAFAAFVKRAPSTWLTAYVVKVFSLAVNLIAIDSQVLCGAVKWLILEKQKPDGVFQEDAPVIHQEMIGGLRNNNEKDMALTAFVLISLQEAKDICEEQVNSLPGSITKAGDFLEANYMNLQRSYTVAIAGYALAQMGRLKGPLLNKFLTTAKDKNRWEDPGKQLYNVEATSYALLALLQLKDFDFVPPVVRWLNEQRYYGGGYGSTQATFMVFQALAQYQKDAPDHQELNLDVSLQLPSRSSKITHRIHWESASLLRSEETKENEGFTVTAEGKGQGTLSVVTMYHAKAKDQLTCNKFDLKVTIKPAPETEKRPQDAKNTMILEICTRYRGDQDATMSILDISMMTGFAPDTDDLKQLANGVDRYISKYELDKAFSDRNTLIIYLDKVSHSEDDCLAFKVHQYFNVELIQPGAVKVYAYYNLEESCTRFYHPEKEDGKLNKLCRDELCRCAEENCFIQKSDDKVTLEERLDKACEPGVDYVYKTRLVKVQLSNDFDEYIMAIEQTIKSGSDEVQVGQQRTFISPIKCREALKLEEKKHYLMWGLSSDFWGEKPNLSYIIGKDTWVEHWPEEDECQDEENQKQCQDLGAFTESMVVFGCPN
Chain of Factor H (P08603 19-1231): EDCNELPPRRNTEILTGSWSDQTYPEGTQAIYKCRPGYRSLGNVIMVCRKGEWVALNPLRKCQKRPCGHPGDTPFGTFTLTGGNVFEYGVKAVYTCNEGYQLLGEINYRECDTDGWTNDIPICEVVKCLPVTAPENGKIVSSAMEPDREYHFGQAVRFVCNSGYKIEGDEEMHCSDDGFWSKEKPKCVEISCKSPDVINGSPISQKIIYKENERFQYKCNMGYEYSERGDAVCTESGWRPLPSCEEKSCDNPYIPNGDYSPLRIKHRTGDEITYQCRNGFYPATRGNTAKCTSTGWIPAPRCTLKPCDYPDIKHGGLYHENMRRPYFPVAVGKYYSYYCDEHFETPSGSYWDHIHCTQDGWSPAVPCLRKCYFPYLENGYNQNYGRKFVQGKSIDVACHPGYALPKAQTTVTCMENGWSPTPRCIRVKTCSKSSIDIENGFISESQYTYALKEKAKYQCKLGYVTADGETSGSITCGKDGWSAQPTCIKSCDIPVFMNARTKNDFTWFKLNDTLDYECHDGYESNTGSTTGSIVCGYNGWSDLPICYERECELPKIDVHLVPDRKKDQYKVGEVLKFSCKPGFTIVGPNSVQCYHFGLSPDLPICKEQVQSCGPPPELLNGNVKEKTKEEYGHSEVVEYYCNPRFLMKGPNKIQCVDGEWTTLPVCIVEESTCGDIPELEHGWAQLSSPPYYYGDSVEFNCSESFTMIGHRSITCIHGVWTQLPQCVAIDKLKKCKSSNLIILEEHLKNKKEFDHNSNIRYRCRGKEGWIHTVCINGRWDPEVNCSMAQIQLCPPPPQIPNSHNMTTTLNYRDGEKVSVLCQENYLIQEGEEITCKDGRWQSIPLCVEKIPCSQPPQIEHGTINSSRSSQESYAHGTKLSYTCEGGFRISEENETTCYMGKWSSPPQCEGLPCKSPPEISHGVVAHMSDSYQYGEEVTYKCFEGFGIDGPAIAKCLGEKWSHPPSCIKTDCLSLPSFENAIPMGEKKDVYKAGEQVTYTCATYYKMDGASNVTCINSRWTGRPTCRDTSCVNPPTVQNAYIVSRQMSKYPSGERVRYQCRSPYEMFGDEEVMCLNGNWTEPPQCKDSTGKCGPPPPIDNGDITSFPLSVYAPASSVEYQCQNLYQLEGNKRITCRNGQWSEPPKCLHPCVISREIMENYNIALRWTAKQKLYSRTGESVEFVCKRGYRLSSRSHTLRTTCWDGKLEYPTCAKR
Chain of FHL-1 (P08603 19-1231): as above

Substance | Kd [nM]
FHL-1 (from UniProt P08603) | 1000
Factor H (from UniProt P08603) | 600
